# Assay results as given in US20240226163A1.
# Legend:
# Assay in all cases: flow cytometry, peptide-pulsed T2 cells, 100 nM antibody
# [1] = molecular target: HLA-A*02:01 presenting CCDC36 417-426 peptide (…) (human)
# [2] = molecular target: HLA-A*02:01 presenting CELSR3 1594-1603 peptide (…) (human)
# [3] = molecular target: HLA-A*02:01 presenting FAT4 4053-4062 peptide (…) (human)
# [4] = molecular target: HLA-A*02:01 presenting LPIN2 823-832 peptide (…) (human)
# [5] = molecular target: HLA-A*02:01 presenting MAGE-A10 254-263 peptide (…) (human)
# [6] = molecular target: HLA-A*02:01 presenting MAGE-A4 230-239 peptide (…) (human)
# [7] = molecular target: HLA-A*02:01 presenting MAGE-A8 232-241 peptide (…) (human)
# [8] = molecular target: HLA-A*02:01 presenting PAPPA2 307-316 peptide (…) (human)
# [9] = molecular target: HLA-A*02:01 presenting SCL25A19 111-120 peptide (…) (human)
# [10] = molecular target: HLA-A*02:01 presenting THBS3 116-125 peptide (…) (human)
substance,measurement,setting,value
mAb1097 (mIgG2a Isotype Control) (antibody),Antibody Binding Ratio (pulsed cell MFI/Unpulsed cell MFI),[1],1.1
same,Antibody Binding Ratio (pulsed cell MFI/Unpulsed cell MFI),[2],0.9
same,Antibody Binding Ratio (pulsed cell MFI/Unpulsed cell MFI),[3],1.1
same,Antibody Binding Ratio (pulsed cell MFI/Unpulsed cell MFI),[4],0.9
same,Antibody Binding Ratio (pulsed cell MFI/Unpulsed cell MFI),[5],1.3
same,Antibody Binding Ratio (pulsed cell MFI/Unpulsed cell MFI),[6],4.3
same,Antibody Binding Ratio (pulsed cell MFI/Unpulsed cell MFI),[7],3.3
same,Antibody Binding Ratio (pulsed cell MFI/Unpulsed cell MFI),[8],0.9
same,Antibody Binding Ratio (pulsed cell MFI/Unpulsed cell MFI),[9],0.9
same,Antibody Binding Ratio (pulsed cell MFI/Unpulsed cell MFI),[10],1
